Among the data in article PMC11865173, “Improving the hydrophilic microenvironment surrounding the catalytic site of fructosyltransferase enhances its catalytic ability” (Biotechnology Letters, 2025) are Km, kcat and kcat/Km values, retold here.

For series [1], the system named is T1, OC[C@H]1O[C@@](CO)(O[C@H]2O[C@H](CO)[C@@H](O)[C@H](O)[C@H]2O)[C@@H](O)[C@@H]1O.
T1 construct: codon-optimised synthetic gene downstream of alpha-factor in pPIC9K, secreted from Pichia pastoris GS115; purified by size exclusion chromatography; model covers residues 25-628; no tag mentioned
The series can be described thus: glucose release measured by biosensor, Michaelis-Menten nonlinear fit. The series is classed as biochemical, Aspergillus niger. As to conditions: 50 °C, pH 5.5, 5 min, transfructosylation. The text has this:
(§1) glucose release measured by biosensor, Michaelis-Menten nonlinear fit on SucC

Substrate in series [2]: OC[C@H]1O[C@@](CO)(O[C@H]2O[C@H](CO)[C@@H](O)[C@H](O)[C@H]2O)[C@@H](O)[C@@H]1O
The series is described as above. The series is classed as biochemical, Aspergillus niger. As to conditions: 50 °C, pH 5.5, 5 min, transfructosylation.
Description: as §1

For orientation: Km means the substrate concentration at which the rate is half of its maximum. By kcat is commonly meant the maximal rate divided by the concentration of active sites. As usually defined, the kcat/Km is the turnover number divided by the Michaelis constant. For the molecule SucC (Aspergillus niger; C66S), in series [1], the Km was 71.14 mM, the catalytic constant (kcat) came to 2.27 s⁻¹ and the kcat/Km is 32 M⁻¹ s⁻¹.

B1: SucC (Aspergillus niger) (protein)
chain: MQTRASVVIDYNVAPPNLSTLPNGSLFETWRPRAHVLPPNGQIGDPCLHYTDPSTGLFHVGFLHDGSGISSATTDDLATYKDLNQGNQVIVPGGINDPVAVFDGSVIPSGINGLPTLLYTSVSFLPIHWSIPYTRGSETQSLAVSSDGGSNFTKLDQGPVIPGPPFAYNVTAFRDPYVFQNPTLDSLLHSKNNTWYTVISGGLHGKGPAQFLYRQYDPDFQYWEFLGQWWHEPTNSTWGNGTWAGRWAFNFETGNVFSLDEYGYNPHGQIFSTIGTEGSDQPVVPQLTSIHDMLWVSGNVSRNGSVSFTPNMAGFLDWGFSSYAAAGKVLPSTSLPSTKSGAPDRFISYVWLSGDLFEQAEGFPTNQQNWTGTLLLPRELRVLYIPNVVDNALARESGASWQVVSSDSSAGTVELQTLGISIARETKAALLSGTSFTESDRTLNSSGVVPFKRSPSEKFFVLSAQLSFPASARGSGLKSGFQILSSELESTTVYYQFSNESIIVDRSNTSAAARTTDGIDSSAEAGKLRLFDVLNGGEQAIETLDLTLVVDNSVLEIYANGRFALSTWVRSWYANSTNISFFQNGVGGVAFSNVTVSEGLYDAWPDRQS
notes: codon-optimised synthetic gene downstream of alpha-factor in pPIC9K, secreted from Pichia pastoris GS115; purified by size exclusion chromatography; model covers residues 25-628; no tag mentioned
Turning to B1, in series [2], the Km was found to be 82.20 mM, the kcat stood at 1.87 s⁻¹ and the kcat/Km is 22.8 M⁻¹ s⁻¹.
